Legend:
[1] = molecular target: Transitional endoplasmic reticulum ATPase (Homo sapiens) (UniProt P55072); experiment: PIF-agarose affinity extraction of normal human liver lysate 1, LC-MS/MS
[2] = molecular target: Endoplasmin (Homo sapiens) (UniProt P14625); experiment: as above
[3] = molecular target: Calmodulin (Homo sapiens) (UniProt P0DP23); experiment: as above
[4] = molecular target: Protein disulfide-isomerase A3 (Homo sapiens) (UniProt P30101); experiment: as above
[5] = molecular target: Calreticulin (Homo sapiens) (UniProt P27797); experiment: as above
[6] = molecular target: Delta-aminolevulinic acid dehydratase (Homo sapiens) (UniProt P13716); experiment: as above
[7] = molecular target: 78 kDa glucose-regulated protein (Homo sapiens) (UniProt P11021); experiment: as above
[8] = molecular target: Vimentin (Homo sapiens) (UniProt P08670); experiment: as above
[9] = molecular target: Enoyl-CoA hydratase domain-containing protein 2, mitochondrial (Homo sapiens) (UniProt Q86YB7); experiment: as above
[10] = molecular target: Activated RNA polymerase II transcriptional coactivator p15 (Homo sapiens) (UniProt P53999); experiment: as above
[11] = molecular target: Parathymosin (Homo sapiens) (UniProt P20962); experiment: as above
[12] = molecular target: Alcohol dehydrogenase 1B (Homo sapiens) (UniProt P00325); experiment: as above
[13] = molecular target: Protein disulfide-isomerase A4 (Homo sapiens) (UniProt P13667); experiment: PIF-agarose affinity extraction of normal human liver lysate 3, LC-MS/MS
[14] = molecular target: Alcohol dehydrogenase 1A (Homo sapiens) (UniProt P07327); experiment: as above
[15] = molecular target: Protein disulfide-isomerase (Homo sapiens) (UniProt P07237); experiment: as above
[16] = molecular target: Transitional endoplasmic reticulum ATPase (Homo sapiens) (UniProt P55072); experiment: as above
[17] = molecular target: Endoplasmin (Homo sapiens) (UniProt P14625); experiment: as above
[18] = molecular target: Calmodulin (Homo sapiens) (UniProt P0DP23); experiment: as above
[19] = molecular target: Protein disulfide-isomerase A3 (Homo sapiens) (UniProt P30101); experiment: as above
[20] = molecular target: Calreticulin (Homo sapiens) (UniProt P27797); experiment: as above
[21] = molecular target: Peroxiredoxin-1 (Homo sapiens) (UniProt Q06830); experiment: as above
[22] = molecular target: Cytosolic 10-formyltetrahydrofolate dehydrogenase (Homo sapiens) (UniProt O75891); experiment: as above
[23] = molecular target: Membrane-associated progesterone receptor component 1 (Homo sapiens) (UniProt O00264); experiment: as above
[24] = molecular target: Alpha-actinin-4 (Homo sapiens) (UniProt O43707); experiment: as above
[25] = molecular target: 14-3-3 protein epsilon (Homo sapiens) (UniProt P62258); experiment: as above
[26] = molecular target: Delta-aminolevulinic acid dehydratase (Homo sapiens) (UniProt P13716); experiment: as above
[27] = molecular target: Tropomyosin alpha-4 chain (Homo sapiens) (UniProt P67936); experiment: as above
[28] = molecular target: 78 kDa glucose-regulated protein (Homo sapiens) (UniProt P11021); experiment: as above
[29] = molecular target: Alcohol dehydrogenase 4 (Homo sapiens) (UniProt P08319); experiment: as above
[30] = molecular target: Cytochrome b-c1 complex subunit 6, mitochondrial (Homo sapiens) (UniProt P07919); experiment: as above
[31] = molecular target: Cytochrome b5 (Homo sapiens) (UniProt P00167); experiment: as above
[32] = molecular target: Hepatoma-derived growth factor (Homo sapiens) (UniProt P51858); experiment: as above
[33] = molecular target: Vimentin (Homo sapiens) (UniProt P08670); experiment: as above
[34] = molecular target: Enoyl-CoA hydratase domain-containing protein 2, mitochondrial (Homo sapiens) (UniProt Q86YB7); experiment: as above
[35] = molecular target: Activated RNA polymerase II transcriptional coactivator p15 (Homo sapiens) (UniProt P53999); experiment: as above
[36] = molecular target: Parathymosin (Homo sapiens) (UniProt P20962); experiment: as above
[37] = molecular target: Alcohol dehydrogenase 1B (Homo sapiens) (UniProt P00325); experiment: as above

Sequence of Enoyl-CoA hydratase domain-containing protein 2, mitochondrial (Homo sapiens) (Q86YB7 36-292 limits assumed): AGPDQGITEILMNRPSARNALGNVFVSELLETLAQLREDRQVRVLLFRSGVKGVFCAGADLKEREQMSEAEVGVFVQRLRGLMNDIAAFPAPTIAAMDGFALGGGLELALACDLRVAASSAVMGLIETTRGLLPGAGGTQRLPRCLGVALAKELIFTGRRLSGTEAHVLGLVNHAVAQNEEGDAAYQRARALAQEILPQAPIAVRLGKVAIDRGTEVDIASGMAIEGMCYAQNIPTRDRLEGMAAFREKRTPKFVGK
Sequence of Vimentin (Homo sapiens) (P08670 2-466 limits assumed): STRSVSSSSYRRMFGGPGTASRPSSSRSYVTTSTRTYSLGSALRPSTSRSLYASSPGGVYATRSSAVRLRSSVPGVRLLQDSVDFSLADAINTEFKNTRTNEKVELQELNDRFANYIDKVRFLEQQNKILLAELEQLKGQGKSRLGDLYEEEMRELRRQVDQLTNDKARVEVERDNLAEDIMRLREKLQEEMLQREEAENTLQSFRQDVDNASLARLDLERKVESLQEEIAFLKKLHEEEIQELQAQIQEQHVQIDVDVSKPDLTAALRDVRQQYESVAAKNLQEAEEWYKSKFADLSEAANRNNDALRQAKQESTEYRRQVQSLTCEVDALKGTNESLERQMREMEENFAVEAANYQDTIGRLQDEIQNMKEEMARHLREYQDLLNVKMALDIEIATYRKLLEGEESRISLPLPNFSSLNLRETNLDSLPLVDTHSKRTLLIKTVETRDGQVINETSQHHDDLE
Sequence of Protein disulfide-isomerase A3 (Homo sapiens) (P30101 25-505 limits assumed): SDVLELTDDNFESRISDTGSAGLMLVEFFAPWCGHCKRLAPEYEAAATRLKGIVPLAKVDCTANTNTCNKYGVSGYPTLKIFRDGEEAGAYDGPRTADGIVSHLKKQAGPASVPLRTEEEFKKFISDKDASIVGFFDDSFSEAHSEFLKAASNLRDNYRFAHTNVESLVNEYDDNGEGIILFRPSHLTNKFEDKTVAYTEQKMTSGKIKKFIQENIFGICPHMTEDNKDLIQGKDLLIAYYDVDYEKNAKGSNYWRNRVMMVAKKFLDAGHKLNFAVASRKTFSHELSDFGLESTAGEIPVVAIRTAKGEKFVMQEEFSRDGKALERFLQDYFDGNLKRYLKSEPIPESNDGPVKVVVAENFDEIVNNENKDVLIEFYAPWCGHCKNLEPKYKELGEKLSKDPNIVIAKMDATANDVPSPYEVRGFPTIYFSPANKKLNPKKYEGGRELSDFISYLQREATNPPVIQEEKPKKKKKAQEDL
Sequence of Alcohol dehydrogenase 1B (Homo sapiens) (P00325 2-375 limits assumed): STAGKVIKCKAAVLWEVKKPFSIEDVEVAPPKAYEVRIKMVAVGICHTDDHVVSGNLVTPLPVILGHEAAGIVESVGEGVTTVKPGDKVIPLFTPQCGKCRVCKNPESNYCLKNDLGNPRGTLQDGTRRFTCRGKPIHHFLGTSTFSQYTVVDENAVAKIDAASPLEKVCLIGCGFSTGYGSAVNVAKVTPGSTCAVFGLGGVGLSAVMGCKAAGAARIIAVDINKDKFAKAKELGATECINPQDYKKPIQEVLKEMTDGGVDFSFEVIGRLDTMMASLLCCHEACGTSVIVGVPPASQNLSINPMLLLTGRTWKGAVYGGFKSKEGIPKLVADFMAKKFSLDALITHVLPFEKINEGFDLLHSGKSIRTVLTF
Sequence of 78 kDa glucose-regulated protein (Homo sapiens) (P11021 19-654 limits assumed): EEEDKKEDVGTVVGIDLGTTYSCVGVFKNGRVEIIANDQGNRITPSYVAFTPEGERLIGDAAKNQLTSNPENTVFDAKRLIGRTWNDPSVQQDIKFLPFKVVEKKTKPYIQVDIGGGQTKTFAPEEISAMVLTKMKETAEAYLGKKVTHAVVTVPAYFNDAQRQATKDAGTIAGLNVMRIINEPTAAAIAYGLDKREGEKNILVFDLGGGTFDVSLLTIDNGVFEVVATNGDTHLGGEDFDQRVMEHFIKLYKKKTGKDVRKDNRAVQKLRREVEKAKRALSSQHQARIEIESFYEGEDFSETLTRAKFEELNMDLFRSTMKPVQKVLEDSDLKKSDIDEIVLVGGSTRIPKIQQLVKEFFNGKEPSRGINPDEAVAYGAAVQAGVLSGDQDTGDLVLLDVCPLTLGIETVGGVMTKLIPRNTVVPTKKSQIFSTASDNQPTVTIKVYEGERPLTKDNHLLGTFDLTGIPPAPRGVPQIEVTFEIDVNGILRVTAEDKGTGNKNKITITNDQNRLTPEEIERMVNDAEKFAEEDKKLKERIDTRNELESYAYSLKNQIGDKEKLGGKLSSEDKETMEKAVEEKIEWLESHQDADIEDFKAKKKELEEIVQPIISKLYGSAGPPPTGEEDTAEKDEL
Sequence of Endoplasmin (Homo sapiens) (P14625 22-803 limits assumed): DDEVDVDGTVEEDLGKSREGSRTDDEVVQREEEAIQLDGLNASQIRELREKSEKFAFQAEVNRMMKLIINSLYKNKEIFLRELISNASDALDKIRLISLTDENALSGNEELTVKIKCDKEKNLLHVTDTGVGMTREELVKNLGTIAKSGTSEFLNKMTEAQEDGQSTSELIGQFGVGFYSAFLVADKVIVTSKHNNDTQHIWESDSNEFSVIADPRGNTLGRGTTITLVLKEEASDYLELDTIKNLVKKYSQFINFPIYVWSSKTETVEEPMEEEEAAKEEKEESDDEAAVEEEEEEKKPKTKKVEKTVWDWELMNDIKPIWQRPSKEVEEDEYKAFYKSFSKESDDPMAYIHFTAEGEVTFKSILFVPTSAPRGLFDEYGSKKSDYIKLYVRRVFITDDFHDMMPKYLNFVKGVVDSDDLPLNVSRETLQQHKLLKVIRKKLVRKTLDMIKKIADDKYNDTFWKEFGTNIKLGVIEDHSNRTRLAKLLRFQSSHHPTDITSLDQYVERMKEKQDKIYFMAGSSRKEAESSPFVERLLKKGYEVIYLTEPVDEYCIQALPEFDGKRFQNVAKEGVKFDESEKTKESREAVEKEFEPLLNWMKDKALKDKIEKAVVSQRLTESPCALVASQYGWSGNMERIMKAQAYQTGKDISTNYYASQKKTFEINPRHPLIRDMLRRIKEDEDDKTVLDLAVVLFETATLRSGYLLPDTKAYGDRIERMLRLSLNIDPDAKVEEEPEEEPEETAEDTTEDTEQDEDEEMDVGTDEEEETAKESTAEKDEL
Sequence of Transitional endoplasmic reticulum ATPase (Homo sapiens) (P55072 2-806 limits assumed): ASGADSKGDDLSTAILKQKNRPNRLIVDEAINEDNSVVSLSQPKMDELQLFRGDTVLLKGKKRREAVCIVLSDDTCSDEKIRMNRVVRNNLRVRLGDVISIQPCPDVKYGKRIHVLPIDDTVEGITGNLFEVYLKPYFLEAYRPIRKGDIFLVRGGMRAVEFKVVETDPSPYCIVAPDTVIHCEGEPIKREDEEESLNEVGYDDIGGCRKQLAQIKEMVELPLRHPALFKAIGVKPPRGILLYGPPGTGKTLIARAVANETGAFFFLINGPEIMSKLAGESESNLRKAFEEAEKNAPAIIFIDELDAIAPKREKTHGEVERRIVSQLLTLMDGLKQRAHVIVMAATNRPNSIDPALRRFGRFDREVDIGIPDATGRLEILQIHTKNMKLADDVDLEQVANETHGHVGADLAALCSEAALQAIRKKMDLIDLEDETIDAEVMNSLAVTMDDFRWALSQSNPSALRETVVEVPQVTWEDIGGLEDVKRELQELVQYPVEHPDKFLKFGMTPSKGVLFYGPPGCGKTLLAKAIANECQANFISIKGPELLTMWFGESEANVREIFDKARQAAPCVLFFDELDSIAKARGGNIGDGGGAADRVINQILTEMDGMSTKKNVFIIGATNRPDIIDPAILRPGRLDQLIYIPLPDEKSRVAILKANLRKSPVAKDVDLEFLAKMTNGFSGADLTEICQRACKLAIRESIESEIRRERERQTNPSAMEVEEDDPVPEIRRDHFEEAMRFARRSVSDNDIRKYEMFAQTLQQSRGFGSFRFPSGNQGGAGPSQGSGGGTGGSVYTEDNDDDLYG
Sequence of Parathymosin (Homo sapiens) (P20962 2-102 limits assumed): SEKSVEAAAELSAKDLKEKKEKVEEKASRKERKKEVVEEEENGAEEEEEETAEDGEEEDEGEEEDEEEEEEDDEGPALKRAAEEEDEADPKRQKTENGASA
Sequence of Calreticulin (Homo sapiens) (P27797 18-417 limits assumed): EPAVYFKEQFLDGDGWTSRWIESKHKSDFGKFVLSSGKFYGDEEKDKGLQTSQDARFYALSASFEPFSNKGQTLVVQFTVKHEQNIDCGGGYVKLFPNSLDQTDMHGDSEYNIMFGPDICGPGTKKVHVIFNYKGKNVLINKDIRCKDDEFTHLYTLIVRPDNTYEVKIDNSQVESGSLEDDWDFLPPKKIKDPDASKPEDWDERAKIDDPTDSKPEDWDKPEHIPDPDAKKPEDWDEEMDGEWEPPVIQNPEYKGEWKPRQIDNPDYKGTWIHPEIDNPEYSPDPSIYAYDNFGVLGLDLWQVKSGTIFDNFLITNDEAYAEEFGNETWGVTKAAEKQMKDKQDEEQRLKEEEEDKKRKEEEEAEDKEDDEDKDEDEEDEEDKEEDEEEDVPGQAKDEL
Sequence of Delta-aminolevulinic acid dehydratase (Homo sapiens) (P13716 whole entry, stated change not applied): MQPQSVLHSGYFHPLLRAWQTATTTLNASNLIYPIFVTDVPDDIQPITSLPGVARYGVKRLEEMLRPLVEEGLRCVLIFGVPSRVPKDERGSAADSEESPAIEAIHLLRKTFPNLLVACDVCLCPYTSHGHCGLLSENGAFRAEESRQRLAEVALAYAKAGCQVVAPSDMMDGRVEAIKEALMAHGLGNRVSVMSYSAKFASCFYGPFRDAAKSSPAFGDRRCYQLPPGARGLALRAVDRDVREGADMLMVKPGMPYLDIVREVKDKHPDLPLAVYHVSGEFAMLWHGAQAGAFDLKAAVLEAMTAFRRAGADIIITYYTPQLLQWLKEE
Sequence of Cytochrome b-c1 complex subunit 6, mitochondrial (Homo sapiens) (P07919 14-91 limits assumed, one chain of several): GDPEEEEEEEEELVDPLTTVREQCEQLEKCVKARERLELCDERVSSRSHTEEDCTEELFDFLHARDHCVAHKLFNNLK
Sequence of Membrane-associated progesterone receptor component 1 (Homo sapiens) (O00264 whole entry): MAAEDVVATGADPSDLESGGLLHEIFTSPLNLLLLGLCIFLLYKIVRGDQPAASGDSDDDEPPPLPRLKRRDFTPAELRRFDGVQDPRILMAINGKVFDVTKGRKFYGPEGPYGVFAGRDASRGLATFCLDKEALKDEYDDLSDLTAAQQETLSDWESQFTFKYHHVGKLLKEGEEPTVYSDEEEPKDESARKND

Question: For sPIF-1(15) (peptide), which % Coverage of the unique peptides observed [1] is on record?
Answer: 52%

Question: What about the % Coverage of the unique peptides observed [2] of the same substance?
Answer: 47%

Question: And the % Coverage of the unique peptides observed [3]?
Answer: 46%

Question: What about the % Coverage of the unique peptides observed [4] of the same substance?
Answer: 45%

Question: And the % Coverage of the unique peptides observed [5]?
Answer: 63%

Question: And the % Coverage of the unique peptides observed [6]?
Answer: 47%

Question: And the % Coverage of the unique peptides observed [7]?
Answer: 55%

Question: What about the % Coverage of the unique peptides observed [8] of the same substance?
Answer: 50%

Question: What about the % Coverage of the unique peptides observed [9] of the same substance?
Answer: 45%

Question: And the % Coverage of the unique peptides observed [10]?
Answer: 45%

Question: And the % Coverage of the unique peptides observed [11]?
Answer: 58%

Question: And the % Coverage of the unique peptides observed [12]?
Answer: 47%

Question: And the % Coverage of the unique peptides observed [13]?
Answer: 51%

Question: What about the % Coverage of the unique peptides observed [14] of the same substance?
Answer: 54%

Question: What about the % Coverage of the unique peptides observed [15] of the same substance?
Answer: 75%

Question: And the % Coverage of the unique peptides observed [16]?
Answer: 52%

Question: And the % Coverage of the unique peptides observed [17]?
Answer: 43%

Question: What about the % Coverage of the unique peptides observed [18] of the same substance?
Answer: 46%

Question: And the % Coverage of the unique peptides observed [19]?
Answer: 42%

Question: And the % Coverage of the unique peptides observed [20]?
Answer: 70%

Question: What about the % Coverage of the unique peptides observed [21] of the same substance?
Answer: 29%

Question: What about the % Coverage of the unique peptides observed [22] of the same substance?
Answer: 52%

Question: And the % Coverage of the unique peptides observed [23]?
Answer: 46%

Question: And the % Coverage of the unique peptides observed [24]?
Answer: 19%

Question: And the % Coverage of the unique peptides observed [25]?
Answer: 64%

Question: What about the % Coverage of the unique peptides observed [26] of the same substance?
Answer: 25%

Question: What about the % Coverage of the unique peptides observed [27] of the same substance?
Answer: 40%

Question: And the % Coverage of the unique peptides observed [28]?
Answer: 48%

Question: And the % Coverage of the unique peptides observed [29]?
Answer: 61%

Question: And the % Coverage of the unique peptides observed [30]?
Answer: 58%

Question: What about the % Coverage of the unique peptides observed [31] of the same substance?
Answer: 43%

Question: And the % Coverage of the unique peptides observed [32]?
Answer: 52%

Question: And the % Coverage of the unique peptides observed [33]?
Answer: 52%

Question: And the % Coverage of the unique peptides observed [34]?
Answer: 31%

Question: What about the % Coverage of the unique peptides observed [35] of the same substance?
Answer: 34%

Question: And the % Coverage of the unique peptides observed [36]?
Answer: 82%

Question: What about the % Coverage of the unique peptides observed [37] of the same substance?
Answer: 66%

Source: patent US20230190867A1, “METHODS OF TREATING NASH AND COMPOSITIONS THEREFORE” (BIOINCEPT, LLC, priority 2018, published 2023)
